This is an account of results in article PMC11041675.

What is called Kd is the constant that tells how readily two partners part at equilibrium. A high value points to lower affinity.

Targets include nsp7;nsp8 (SARS-CoV-2;SARS-CoV-2, UniProt P0DTD1;P0DTD1 3860-3942;3943-4140, |); nsp7 (SARS-CoV-2, UniProt P0DTD1 3860-3942); nsp8 (SARS-CoV-2, UniProt P0DTD1 3943-4140).
What all share (experiment): EMSA
For orientation: A gel shift assay detects complexes by their altered migration in electrophoresis.

B1: rd85 (structured_RNA)
RNA: GGGAAUAUACUAAUAUUGGUUGAGUUGUCCAAGCUCUAAUUGUGUCCUUUAGCUGUACGGAUUAUAAAAGUAAUAGGGAUGUGUU
B1 returned a Kd with nsp7;nsp8 of 3.7 µM.

B2: PKP4 (structured_RNA)
RNA: GGGCUUGUGCAGAAUGAAUUCUCGUAACUACAUAGCACAAGUAGAUGUAGUUAACUUUAAUCUCACAGCAAUGUGAUUUUAAUAGCUUCUUAGGAGAAU
In the data set with nsp7;nsp8, B2 came in with a Kd of 2.6 µM. For the same molecule, the binding result in the data set with nsp7 is listed as “no binding”; with nsp8 it was “binds”.

B3: PK (structured_RNA)
RNA: GGGUCUUGUGCAGAAUGAAUUCUCGUAACUACAUAGCACAAGUAGAUGUAGUUA
As to B3, in the data set with nsp7;nsp8, binding was put at a Kd of 5.3 µM. Further, the figures for the binding result in the data set with nsp7 and with nsp8 were “no binding” and “binds”, respectively.

GGAUUCUCGUAACUACAUAGCACAAGUAGAUGUAGUUACUUAGGAGAAU (structured_RNA) [SL] gave a Kd in the data set with nsp7;nsp8 of 5.7 µM. Moreover, the binding result is “no binding” in the data set with nsp7 and “binds” in the data set with nsp8.

B4: SLP4 (structured_RNA)
RNA: GGGAUUCUCGUAACUACAUAGCACAAGUAGAUGUAGUUAACUUUAAUCUCACAGCAAUGUGAUUUUAAUAGCUUCUUAGGAGAAU
In the case of B4, in the data set with nsp7;nsp8, the Kd is 2.4 µM. Also, the binding result with nsp7 is “no binding”; with nsp8 it was “binds”.
